Test [1] addresses LAP-TGFβ1 on U937 cells (Homo sapiens) (UniProt P01137). Kind of test: flow cytometry dot plot against GARP, U937 cells, Alexa 647 antibody at 10 ug/ml. For orientation: In flow cytometry, cells or beads pass a laser one at a time.
Test [2] concerns the target human-chicken LAP-TGFβ1 chimera #7 on HT1080 cells (human/chicken chimera) (UniProt P01137). Kind of test: flow cytometry, transduced HT1080 cells.
The target in test [3] is human-chicken LAP-TGFβ1 chimera #3 on HT1080 cells (human/chicken chimera) (UniProt P01137). As to the kind of experiment: flow cytometry, transduced HT1080 cells.
Chain of human-chicken LAP-TGFβ1 chimera #3 on HT1080 cells (human/chicken chimera) (P01137 other isoform, or with tags, fused parts or gaps mutant): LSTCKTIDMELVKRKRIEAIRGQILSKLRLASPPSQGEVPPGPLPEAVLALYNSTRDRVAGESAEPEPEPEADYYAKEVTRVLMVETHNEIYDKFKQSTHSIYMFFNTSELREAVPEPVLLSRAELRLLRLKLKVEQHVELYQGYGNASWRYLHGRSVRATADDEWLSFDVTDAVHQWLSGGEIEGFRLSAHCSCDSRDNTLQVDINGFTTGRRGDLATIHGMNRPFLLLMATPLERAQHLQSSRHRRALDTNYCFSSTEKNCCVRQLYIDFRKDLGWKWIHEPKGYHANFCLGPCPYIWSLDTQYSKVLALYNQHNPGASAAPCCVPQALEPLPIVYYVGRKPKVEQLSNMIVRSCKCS
For test [4], the target named is human-chicken LAP-TGFβ1 chimera #2.2 on HT1080 cells (human/chicken chimera) (UniProt P01137). Kind of test: flow cytometry, transduced HT1080 cells.
Chain of human-chicken LAP-TGFβ1 chimera #2.2 on HT1080 cells (human/chicken chimera) (P01137 other isoform, or with tags, fused parts or gaps mutant): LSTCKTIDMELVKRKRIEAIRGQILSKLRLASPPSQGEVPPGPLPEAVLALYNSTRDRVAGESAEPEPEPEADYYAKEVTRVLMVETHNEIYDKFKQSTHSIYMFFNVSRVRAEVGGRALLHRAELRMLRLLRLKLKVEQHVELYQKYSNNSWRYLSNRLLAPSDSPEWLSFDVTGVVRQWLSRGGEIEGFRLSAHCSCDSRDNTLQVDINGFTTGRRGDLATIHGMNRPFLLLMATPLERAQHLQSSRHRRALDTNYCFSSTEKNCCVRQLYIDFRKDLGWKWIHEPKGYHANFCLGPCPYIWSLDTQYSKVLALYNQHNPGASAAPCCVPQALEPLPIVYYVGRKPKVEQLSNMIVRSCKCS
Test [5] addresses human-chicken LAP-TGFβ1 chimera #1.3 on HT1080 cells (human/chicken chimera) (UniProt P01137). Kind of test: flow cytometry, transduced HT1080 cells.
The target of test [6] is human-chicken LAP-TGFβ1 chimera #4 on HT1080 cells (human/chicken chimera) (UniProt P01137). As to the kind of experiment: flow cytometry, transduced HT1080 cells.
Chain of human-chicken LAP-TGFβ1 chimera #4 on HT1080 cells (human/chicken chimera) (P01137 other isoform, or with tags, fused parts or gaps mutant): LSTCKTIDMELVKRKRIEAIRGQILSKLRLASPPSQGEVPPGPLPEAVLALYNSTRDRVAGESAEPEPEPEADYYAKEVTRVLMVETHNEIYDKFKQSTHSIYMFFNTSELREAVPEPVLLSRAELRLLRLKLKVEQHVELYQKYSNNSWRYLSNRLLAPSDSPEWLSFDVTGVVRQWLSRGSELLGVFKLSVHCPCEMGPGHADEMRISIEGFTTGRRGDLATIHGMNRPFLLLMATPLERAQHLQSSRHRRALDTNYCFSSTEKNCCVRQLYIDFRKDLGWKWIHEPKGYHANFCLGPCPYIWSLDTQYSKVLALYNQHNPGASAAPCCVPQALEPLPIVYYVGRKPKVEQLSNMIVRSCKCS
The target in test [7] is chicken LAP-TGFβ1 on HT1080 cells (chicken) (UniProt P09531). As to the kind of experiment: flow cytometry, transduced HT1080 cells.
Chain of chicken LAP-TGFβ1 on HT1080 cells (chicken) (P09531 19-391): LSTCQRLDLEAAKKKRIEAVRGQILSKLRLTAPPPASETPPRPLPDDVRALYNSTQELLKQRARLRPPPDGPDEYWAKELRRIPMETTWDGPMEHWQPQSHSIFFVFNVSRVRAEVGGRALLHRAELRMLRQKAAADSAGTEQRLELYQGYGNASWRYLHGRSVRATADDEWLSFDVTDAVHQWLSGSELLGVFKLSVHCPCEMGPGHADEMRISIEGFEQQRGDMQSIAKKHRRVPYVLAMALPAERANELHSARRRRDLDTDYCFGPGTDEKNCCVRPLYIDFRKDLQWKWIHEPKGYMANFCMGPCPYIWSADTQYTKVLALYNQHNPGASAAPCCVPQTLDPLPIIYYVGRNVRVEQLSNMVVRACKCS
Test [8] addresses human-chicken LAP-TGFβ1 chimera #5 on HT1080 cells (human/chicken chimera). Kind of test: flow cytometry, transduced HT1080 cells.
Test [9] concerns the target human LAP-TGFβ1 overexpressed on cells (human) (UniProt P01137). Kind of test: flow cytometry, transduced HT1080 cells.
In test [10] the target is human-chicken LAP-TGFβ1 chimera #1 on HT1080 cells (human/chicken chimera). Kind of test: flow cytometry, transduced HT1080 cells.
Chain of human-chicken LAP-TGFβ1 chimera #1 on HT1080 cells (human/chicken chimera) (chain, as listed by the source mutant limits assumed): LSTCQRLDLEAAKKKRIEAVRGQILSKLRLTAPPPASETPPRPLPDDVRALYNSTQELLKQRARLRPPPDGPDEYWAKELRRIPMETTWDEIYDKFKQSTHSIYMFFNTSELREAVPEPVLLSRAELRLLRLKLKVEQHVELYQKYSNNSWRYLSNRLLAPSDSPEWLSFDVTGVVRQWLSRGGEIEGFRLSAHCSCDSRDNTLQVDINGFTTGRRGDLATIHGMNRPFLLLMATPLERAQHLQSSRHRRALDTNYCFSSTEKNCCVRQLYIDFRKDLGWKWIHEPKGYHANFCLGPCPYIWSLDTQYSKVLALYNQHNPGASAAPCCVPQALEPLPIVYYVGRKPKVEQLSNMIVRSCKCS
Test [11] addresses human-chicken LAP-TGFβ1 chimera #2.1 on HT1080 cells (human/chicken chimera) (UniProt P01137). Kind of test: flow cytometry, transduced HT1080 cells.
For test [12], the target named is human-chicken LAP-TGFβ1 chimera #2 on HT1080 cells (human/chicken chimera). As to the kind of experiment: flow cytometry, transduced HT1080 cells.
Test [13] addresses human-chicken LAP-TGFβ1 chimera #6 on HT1080 cells (human/chicken chimera) (UniProt P01137). As to the kind of experiment: flow cytometry, transduced HT1080 cells.
For test [14], the target named is human-chicken LAP-TGFβ1 chimera #1.2 on HT1080 cells (human/chicken chimera) (UniProt P01137). As to the kind of experiment: flow cytometry, transduced HT1080 cells.
Chain of human-chicken LAP-TGFβ1 chimera #1.2 on HT1080 cells (human/chicken chimera) (P01137 other isoform, or with tags, fused parts or gaps mutant): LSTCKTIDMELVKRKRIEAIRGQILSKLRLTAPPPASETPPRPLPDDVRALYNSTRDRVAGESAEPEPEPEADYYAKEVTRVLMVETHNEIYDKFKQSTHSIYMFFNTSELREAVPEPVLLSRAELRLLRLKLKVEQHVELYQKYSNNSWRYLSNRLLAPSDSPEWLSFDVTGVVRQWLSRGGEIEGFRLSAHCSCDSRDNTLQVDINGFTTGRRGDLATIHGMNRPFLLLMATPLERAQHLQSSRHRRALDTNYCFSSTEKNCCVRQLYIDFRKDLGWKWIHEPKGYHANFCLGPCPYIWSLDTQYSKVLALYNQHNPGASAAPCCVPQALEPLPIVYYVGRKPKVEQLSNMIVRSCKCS

Chain of LAP-TGFβ1 on U937 cells (Homo sapiens) (P01137 30-390 limits assumed): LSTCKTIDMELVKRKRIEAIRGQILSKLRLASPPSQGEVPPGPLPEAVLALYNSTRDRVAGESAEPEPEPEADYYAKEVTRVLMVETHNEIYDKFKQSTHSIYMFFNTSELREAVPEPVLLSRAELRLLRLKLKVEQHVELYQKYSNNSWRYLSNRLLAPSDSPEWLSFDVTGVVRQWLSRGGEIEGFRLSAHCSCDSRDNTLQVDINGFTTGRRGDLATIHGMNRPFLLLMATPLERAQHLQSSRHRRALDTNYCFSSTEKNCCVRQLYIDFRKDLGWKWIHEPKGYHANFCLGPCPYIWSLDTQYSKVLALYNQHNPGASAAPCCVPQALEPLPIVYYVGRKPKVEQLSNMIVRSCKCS
Chain of human-chicken LAP-TGFβ1 chimera #1.3 on HT1080 cells (human/chicken chimera) (P01137 other isoform, or with tags, fused parts or gaps mutant): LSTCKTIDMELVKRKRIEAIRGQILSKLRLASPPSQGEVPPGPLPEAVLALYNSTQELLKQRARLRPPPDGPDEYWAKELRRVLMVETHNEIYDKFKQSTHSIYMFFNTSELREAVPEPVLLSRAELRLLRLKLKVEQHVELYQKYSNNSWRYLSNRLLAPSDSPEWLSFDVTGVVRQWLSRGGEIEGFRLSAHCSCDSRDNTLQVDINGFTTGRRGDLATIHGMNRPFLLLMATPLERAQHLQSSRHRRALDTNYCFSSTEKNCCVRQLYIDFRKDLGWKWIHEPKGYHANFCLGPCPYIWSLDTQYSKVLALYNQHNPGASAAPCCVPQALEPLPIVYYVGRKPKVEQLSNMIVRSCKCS
Chain of human-chicken LAP-TGFβ1 chimera #2.1 on HT1080 cells (human/chicken chimera) (P01137 other isoform, or with tags, fused parts or gaps mutant): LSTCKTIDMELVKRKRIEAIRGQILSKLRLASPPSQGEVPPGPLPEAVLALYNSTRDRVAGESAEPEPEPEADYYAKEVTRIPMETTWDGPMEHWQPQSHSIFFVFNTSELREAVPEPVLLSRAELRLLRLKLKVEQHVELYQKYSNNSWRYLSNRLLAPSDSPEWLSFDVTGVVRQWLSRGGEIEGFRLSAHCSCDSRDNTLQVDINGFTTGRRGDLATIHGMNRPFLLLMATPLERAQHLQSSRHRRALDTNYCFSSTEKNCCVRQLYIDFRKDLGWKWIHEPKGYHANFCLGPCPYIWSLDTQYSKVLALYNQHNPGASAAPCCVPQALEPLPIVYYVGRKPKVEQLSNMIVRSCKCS
Chain of human-chicken LAP-TGFβ1 chimera #6 on HT1080 cells (human/chicken chimera) (P01137 other isoform, or with tags, fused parts or gaps mutant): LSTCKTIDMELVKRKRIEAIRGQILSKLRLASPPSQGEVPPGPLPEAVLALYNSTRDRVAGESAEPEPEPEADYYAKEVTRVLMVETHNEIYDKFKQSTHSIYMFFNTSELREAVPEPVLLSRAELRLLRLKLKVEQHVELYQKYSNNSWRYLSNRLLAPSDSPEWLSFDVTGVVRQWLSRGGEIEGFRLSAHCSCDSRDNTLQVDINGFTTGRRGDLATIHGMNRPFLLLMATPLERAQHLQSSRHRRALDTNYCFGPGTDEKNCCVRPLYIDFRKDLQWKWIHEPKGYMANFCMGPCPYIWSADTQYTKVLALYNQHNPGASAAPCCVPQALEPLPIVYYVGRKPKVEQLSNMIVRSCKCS
Chain of human-chicken LAP-TGFβ1 chimera #7 on HT1080 cells (human/chicken chimera) (P01137 other isoform, or with tags, fused parts or gaps mutant): as the sequence (P01137 30-390 limits assumed) above, with A331T, E333D, V338I, K344N, P345V, K346R, I354V, S357A counted along it
Chain of human LAP-TGFβ1 overexpressed on cells (human) (P01137 30-390): as the sequence (P01137 30-390 limits assumed) above
Chain of human-chicken LAP-TGFβ1 chimera #5 on HT1080 cells (human/chicken chimera) (chain, as listed by the source mutant limits assumed): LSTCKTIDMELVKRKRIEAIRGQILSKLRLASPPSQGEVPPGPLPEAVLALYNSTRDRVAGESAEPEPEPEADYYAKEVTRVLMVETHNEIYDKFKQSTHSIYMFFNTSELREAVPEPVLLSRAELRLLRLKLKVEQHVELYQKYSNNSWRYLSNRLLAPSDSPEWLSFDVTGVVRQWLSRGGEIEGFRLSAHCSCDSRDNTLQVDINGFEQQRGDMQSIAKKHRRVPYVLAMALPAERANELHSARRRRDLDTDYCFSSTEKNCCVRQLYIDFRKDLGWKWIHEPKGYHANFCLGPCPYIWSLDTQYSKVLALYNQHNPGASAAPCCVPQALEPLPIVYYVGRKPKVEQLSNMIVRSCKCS

In test [1], Isotype Control (antibody) came in with a % of cells in Q1 (antibody axis positive, GARP negative) of 16.2% and a % of cells in Q2 (antibody axis positive, GARP positive) of 0.37%.
Consider “rabbit monoclonal antibody raised against a peptide from the mature cytokine domain (Abcam ab179695)”, for which the % GFP+/APC+ cells in test [2] amounted to 0.6%; in [3], 46.3%; in test [4] it was 47.2%; in test [5], 65.2%; in [6] it was 56.2%; in test [7], 0.5%. Also, the % GFP+/APC+ cells in test [8] was found to be 11.9%; in test [9] it was 68.9%; in [10] it was 7.5%; in test [11], 79.1%; in test [12], 1.5%; in [13], 76.7%. Further, the % GFP+/APC+ cells in test [14] was 78.3%.

Values taken from US20220017612A1.
